Laboratory results: article PMC11077437, “Scrutiny of chimeric antigen receptor activation by the extracellular domain: experience with single domain antibodies targeting multiple myeloma cells highlights the need for case-by-case optimization” (Frontiers in Immunology, 2024)

Key:
[1] = target: T1, human CS1 on CS1pos OPM2 multiple myeloma cells (Homo sapiens, OPM2 myeloma cells, UniProt Q9NQ25); assay: cell-based or functional assay
[2] = target: T2, recombinant human CS1 protein (CS1-(his)C) (Homo sapiens, UniProt Q9NQ25); assay: SPR; Biacore T200; recombinant CS1 amine-coupled on a CM5 chip; VHH 100 nM to 3.125 nM in HBS pH 7.4, 25°C; association 180 s, dissociation 300 s; fit '1:1 binding with drift and RI2'; n=1; details: both partners purified
T2 construct: CS1 (SLAMF7, CD319), human, the extracellular portion; also called huCS1; SLAMF7; source: HEK293-E 253 cells, transiently transfected, purified from the supernatant (IMAC, SEC) by U Protein Express

[3] = target: T1, human CS1 on CS1pos OPM2 multiple …; assay: flow cytometry on cells; purified VHH at 200 nM, 1 h at 4°C, on CS1pos OPM2 cells; detected by mouse anti-His IgG1 mAb and APC anti-mouse IgG1 mAb; ΔMFI against the non-targeting control VHH R3B23 at 200 nM; n=1; details: one partner purified
[4] = target: T3, recombinant murine CS1 protein (CS1-(his)C) (Mus musculus, strain , UniProt Q8BHK6); assay: SPR; follow-up SPR on plate-coated muCS1 (Supplementary Figure 1); details: both partners purified
T3 construct: CS1 (SLAMF7), murine, the extracellular portion; also called muCS1; source: HEK293-E 253 cells, transiently transfected, purified from the supernatant (IMAC, SEC) by U Protein Express
T3 sequence (Q8BHK6 23-224): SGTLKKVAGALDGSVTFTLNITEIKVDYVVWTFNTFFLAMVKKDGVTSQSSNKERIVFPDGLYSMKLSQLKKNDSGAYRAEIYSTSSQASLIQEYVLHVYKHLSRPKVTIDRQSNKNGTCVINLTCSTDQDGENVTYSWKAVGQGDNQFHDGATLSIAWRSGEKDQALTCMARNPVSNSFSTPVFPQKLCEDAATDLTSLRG

[5] = target: T4, murine CS1 on muCS1pos 5T33vt cells (Mus musculus, 5T33vt myeloma cells, UniProt Q8BHK6); assay: flow cytometry on cells; VHH on muCS1pos 5T33vt cells (Supplementary Figure 2); details: one partner purified
T4 construct: CS1 (SLAMF7), murine, as expressed on 5T33vt cells; source: on murine CS1pos 5T33vt cells
T4 sequence (Q8BHK6 23-333): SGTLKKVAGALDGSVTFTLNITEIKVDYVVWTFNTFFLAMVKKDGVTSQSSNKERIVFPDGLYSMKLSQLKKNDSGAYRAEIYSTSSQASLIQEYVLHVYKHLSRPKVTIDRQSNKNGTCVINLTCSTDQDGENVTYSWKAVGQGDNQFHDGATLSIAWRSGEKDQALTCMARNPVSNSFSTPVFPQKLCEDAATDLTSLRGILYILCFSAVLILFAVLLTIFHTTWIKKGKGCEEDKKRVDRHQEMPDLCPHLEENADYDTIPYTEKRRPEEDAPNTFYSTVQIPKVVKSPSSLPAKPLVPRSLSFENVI

[6] = target: T2, recombinant human CS1 protein …; assay: SPR; Biacore T200; recombinant CS1 amine-coupled on a CM5 chip; VHH 100 nM to 3.125 nM in HBS pH 7.4, 25°C; association 180 s, dissociation 300 s; fit '1:1 binding with drift and RI2'; n=1; details: both partners purified; remark: listed apart in the source
[7] = target: T1, human CS1 on CS1pos OPM2 multiple …; assay: flow cytometry on cells; purified VHH at 200 nM, 1 h at 4°C, on CS1pos OPM2 cells; detected by mouse anti-His IgG1 mAb and APC anti-mouse IgG1 mAb; ΔMFI against the non-targeting control VHH R3B23 at 200 nM; n=1; details: one partner purified; remark: listed apart in the source
[8] = target: T5, VHH-2 CAR on 2D3 reporter T cells (llama | human); assay: flow cytometry on cells; 2D3 cells with a VHH-CAR incubated with biotinylated CS1 antigen, then PE-coupled streptavidin; details: one partner purified
T5 construct: as the VHH of m1; cloned by PstI/BstEII from pHEN6c; hinge region derived from human IgG4; transmembrane and intracellular co-stimulatory domain derived from human CD28; also called 2D3-2; VHH-CAR with VHH-2; source: 2D3 reporter T cells, lentivirally transduced, sorted, on cells
T5 sequence (heavy, as listed by the source): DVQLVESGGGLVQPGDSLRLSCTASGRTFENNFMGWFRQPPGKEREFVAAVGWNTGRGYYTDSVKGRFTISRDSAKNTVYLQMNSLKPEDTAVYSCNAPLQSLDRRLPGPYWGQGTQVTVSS

[9] = target: T6, VHH-6 CAR on 2D3 reporter T cells (llama | human); assay: as above; details: one partner purified
T6 construct: as the VHH of m2; cloned by PstI/BstEII from pHEN6c; hinge region derived from human IgG4; transmembrane and intracellular co-stimulatory domain derived from human CD28; also called 2D3-6; VHH-CAR with VHH-6; source: 2D3 reporter T cells, lentivirally transduced, sorted, on cells
T6 sequence (heavy, as listed by the source): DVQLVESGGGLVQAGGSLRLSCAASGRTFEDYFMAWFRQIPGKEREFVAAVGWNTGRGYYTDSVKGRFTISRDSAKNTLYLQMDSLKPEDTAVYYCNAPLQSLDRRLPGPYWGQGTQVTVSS

[10] = target: T7, VHH-17 CAR on 2D3 reporter T cells (llama | human); assay: as above; details: one partner purified
T7 construct: as the VHH of m3; cloned by PstI/BstEII from pHEN6c; hinge region derived from human IgG4; transmembrane and intracellular co-stimulatory domain derived from human CD28; also called 2D3-17; VHH-CAR with VHH-17; source: 2D3 reporter T cells, lentivirally transduced, sorted, on cells
T7 sequence (heavy, as listed by the source): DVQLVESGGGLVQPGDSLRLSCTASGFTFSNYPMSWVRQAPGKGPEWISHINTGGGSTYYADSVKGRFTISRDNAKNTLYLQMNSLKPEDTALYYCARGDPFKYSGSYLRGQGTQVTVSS

[11] = target: T8, VHH-29 CAR on 2D3 reporter T cells (llama | human); assay: as above; details: one partner purified
T8 construct: as the VHH of m7; cloned by PstI/BstEII from pHEN6c; hinge region derived from human IgG4; transmembrane and intracellular co-stimulatory domain derived from human CD28; also called 2D3-29; VHH-CAR with VHH-29; source: 2D3 reporter T cells, lentivirally transduced, sorted, on cells

[12] = target: T9, VHH-53 CAR on 2D3 reporter T cells (llama | human); assay: as above; details: one partner purified
T9 construct: as the VHH of m10; cloned by PstI/BstEII from pHEN6c; hinge region derived from human IgG4; transmembrane and intracellular co-stimulatory domain derived from human CD28; also called 2D3-53; VHH-CAR with VHH-53; source: 2D3 reporter T cells, lentivirally transduced, sorted, on cells

[13] = target: T10, VHH-57 CAR on 2D3 reporter T cells (llama | human); assay: as above; details: one partner purified
T10 construct: as the VHH of m12; cloned by PstI/BstEII from pHEN6c; hinge region derived from human IgG4; transmembrane and intracellular co-stimulatory domain derived from human CD28; also called 2D3-57; VHH-CAR with VHH-57; source: 2D3 reporter T cells, lentivirally transduced, sorted, on cells

[14] = target: T11, VHH-61 CAR on 2D3 reporter T cells (llama | human); assay: as above; details: one partner purified
T11 construct: as the VHH of m13; cloned by PstI/BstEII from pHEN6c; hinge region derived from human IgG4; transmembrane and intracellular co-stimulatory domain derived from human CD28; also called 2D3-61; VHH-CAR with VHH-61; source: 2D3 reporter T cells, lentivirally transduced, sorted, on cells

[15] = target: T12, VHH-63 CAR on 2D3 reporter T cells (llama | human); assay: as above; details: one partner purified
T12 construct: as the VHH of m14; cloned by PstI/BstEII from pHEN6c; hinge region derived from human IgG4; transmembrane and intracellular co-stimulatory domain derived from human CD28; also called 2D3-63; VHH-CAR with VHH-63; source: 2D3 reporter T cells, lentivirally transduced, sorted, on cells

[16] = target: T13, VHH-71 CAR on 2D3 reporter T cells (llama | human); assay: as above; details: one partner purified
T13 construct: as the VHH of m16; cloned by PstI/BstEII from pHEN6c; hinge region derived from human IgG4; transmembrane and intracellular co-stimulatory domain derived from human CD28; also called 2D3-71; VHH-CAR with VHH-71; source: 2D3 reporter T cells, lentivirally transduced, sorted, on cells

[17] = target: T14, VHH-73 CAR on 2D3 reporter T cells (llama | human); assay: as above; details: one partner purified
T14 construct: as the VHH of m17; cloned by PstI/BstEII from pHEN6c; hinge region derived from human IgG4; transmembrane and intracellular co-stimulatory domain derived from human CD28; also called 2D3-73; VHH-CAR with VHH-73; source: 2D3 reporter T cells, lentivirally transduced, sorted, on cells

Binder | tumor uptake of the 99mTc-labelled VHH in subcutaneous CS1pos OPM2 tumors in mice, ex vivo at 90 min p.i. (n=3) [1] | Kd [2] | koff [2] | kon [2] | ΔMFI [VHH] = 200 nM [3] | also measured
VHH-71 (VHH, 99mTc-labelled on the His tag for the in vivo experiment; source: E. coli WK6 periplasm, purified (IMAC, SEC); not shown: His6, C-terminal, kept) VHH: DVQLVESGGGMVQPGGSLRLSCAASGFTFSSYDMSWVRQAPGKGPEWVSFINTGGGSTYYDDSVKGRFTISRDNAKNTLYLQMNSLKPEDTALYYCARGDPYSDPKYWGQGTQVTVSS | 4.02 % IA/g | 4.29 nM | 0.0016 s⁻¹ | 372000 M⁻¹ s⁻¹ | 11.2 | –
VHH-57 (VHH, 99mTc-labelled on the His tag for the in vivo experiment; source: E. coli WK6 periplasm, purified (IMAC, SEC); not shown: His6, C-terminal, kept) VHH: DVQLVESGGGMVQPGGSLRLSCAASGFTFSSYGMSWVRQAPGKGPEWVSHINTGGGSTYYADSVKGRFTISRDNAKNTLYLQMNSLKPEDTALYYCARGDPWGHDPSWGQGTQVTVSS | 0.85 % IA/g | 24.7 nM | 0.0085 s⁻¹ | 350000 M⁻¹ s⁻¹ | 4.8 | –
VHH-63 (VHH, 99mTc-labelled on the His tag for the in vivo experiment; source: E. coli WK6 periplasm, purified (IMAC, SEC); not shown: His6, C-terminal, kept) VHH: DVQLVESGGGLVQPGGSLRLSCTVSGLTFSDYDMSWVRQAPGKGPEWVSFINTGGGSTYYDDSVKGRFTISRDNAKNTLYLQMDSLKPEDTALYYCARGDPYSDPKYWGQGTQVTVSS | 1.03 % IA/g | 9.8 nM | 0.0019 s⁻¹ | 190000 M⁻¹ s⁻¹ | 3.37 | –
VHH-73 (VHH, 99mTc-labelled on the His tag for the in vivo experiment; source: E. coli WK6 periplasm, purified (IMAC, SEC); not shown: His6, C-terminal, kept) VHH: DVQLVESGGGMVQSGGSLRLSCAASGFTFSSYDMSWVRQAPGKGPEWVSTINTGGSSTYYDDSVKGRFTISRDNAKNTLYLQMNSLKPEDTALYYCARGGPYSRDYWGQGTQVTVSS | 0.52 % IA/g | 35.8 nM | 0.00254 s⁻¹ | 74400 M⁻¹ s⁻¹ | 1.35 | –
VHH-78 (VHH, source: E. coli WK6 periplasm, purified (IMAC, SEC); not shown: His6, C-terminal, kept) VHH: QVQLQESGGGLVQPGGSLRLSCAASGSIFSILAMGWYRQAPGKQRELVASVTNGGSTNYADSVKGRFTISRDNAKNTVYLQMNSLKPEDTAVYYCNVRPYSDYDSWGHGTQVTVSS | – | – | – | – | – | binding result [4]: binds; binding result [5]: binds; binding result [6]: no binding (tested: 100 nM); binding result [7]: no binding (tested: 200 nM)
VHH-79 (VHH, source: E. coli WK6 periplasm, purified (IMAC, SEC); not shown: His6, C-terminal, kept) VHH: QVQLQESGGGLVQPGGSLRLSCAASGSIFSILAMAWYRQAPGKQRELVASITNGGSTNYADSVKGRFTISRDNDKNTVYLLMNSLKPEDTAVYYCNPRPMPWGTYDYWGQGTQVTVSS | – | – | – | – | – | binding result [4]: binds; binding result [5]: binds; binding result [6]: no binding (tested: 100 nM); binding result [7]: no binding (tested: 200 nM)
biotinylated recombinant human CS1 (CS1-(his)C-PEG4-biotin) (domain or fragment, UniProt Q9NQ25 23-226, looked up, PEG4-biotin, CS1 (SLAMF7, CD319), human, the extracellular portion, biotinylated variant; also called biotinylated CS1 antigen; biotinylated CS1 protein; source: custom-produced by U Protein Express) SGPVKELVGSVGGAVTFPLKSKVKQVDSIVWTFNTTPLVTIQPEGGTIIVTQNRNRERVDFPDGGYSLKLSKLKKNDSGIYYVGIYSSSLQQPSTQEYVLHVYEHLSKPKVTMGLQSNKNGTCVTNLTCCMEHGEEDVIYTWKALGQAANESHNGSILPISWRWGESDMTFICVARNPVSRNFSSPILARKLCEGAADDPDSSM | – | – | – | – | – | binding result [8]: binds; binding result [9]: binds; binding result [10]: binds; binding result [11]: binds; binding result [12]: binds; binding result [13]: binds; binding result [14]: binds; binding result [15]: binds; binding result [16]: binds; binding result [17]: binds
